Results reported in article PMC5702532 (2016).

Molecular target: Bradykinin (Homo sapiens, UniProt P01042)
Test: SPR

Sequence of Bradykinin (P01042 whole entry, looked up): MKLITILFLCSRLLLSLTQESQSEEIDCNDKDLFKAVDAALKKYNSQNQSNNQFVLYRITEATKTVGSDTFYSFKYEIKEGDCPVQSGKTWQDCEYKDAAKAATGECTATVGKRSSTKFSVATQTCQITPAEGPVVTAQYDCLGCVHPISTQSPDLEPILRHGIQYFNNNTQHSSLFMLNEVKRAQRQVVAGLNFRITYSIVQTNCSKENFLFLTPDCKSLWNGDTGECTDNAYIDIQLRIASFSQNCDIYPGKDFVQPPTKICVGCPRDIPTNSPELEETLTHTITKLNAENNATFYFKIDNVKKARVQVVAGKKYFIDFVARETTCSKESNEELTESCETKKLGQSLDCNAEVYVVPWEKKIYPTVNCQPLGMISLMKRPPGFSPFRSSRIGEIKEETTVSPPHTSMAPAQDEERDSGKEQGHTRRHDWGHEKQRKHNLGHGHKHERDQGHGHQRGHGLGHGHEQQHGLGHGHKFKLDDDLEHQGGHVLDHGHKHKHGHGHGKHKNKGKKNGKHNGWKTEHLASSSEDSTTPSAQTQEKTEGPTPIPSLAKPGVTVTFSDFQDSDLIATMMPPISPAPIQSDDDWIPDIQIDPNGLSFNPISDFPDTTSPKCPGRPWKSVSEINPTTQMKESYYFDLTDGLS

B1: Aminopeptidase P (APaseP) (protein)
chain: PPKVTSELLRQLRQAMRNSEYVTEPIQAYIIPSGDAHQSEYIAPCDCRRAFVSGFDGSAGTAIITEEHAAMWTDGRYFLQAAKQMDSNWTLMKMGLKDTPTQEDWLVSVLPEGSRVGVDPLIIPTDYWKKMAKVLRSAGHHLIPVKENLVDKIWTDRPERPCKPLLTLGLDYTGISWKDKVADLRLKMAERNVMWFVVTALDEIAWLFNLRGSDVEHNPVFFSYAIIGLETIMLFIDGDRIDAPSVKEHLLLDLGLEAEYRIQVHPYKSILSELKALCADLSPREKVWVSDKASYAVSETIPKDHRCCMPYTPICIAKAVKNSAESEGMRRAHIKDAVALCELFNWLEKEVPKGGVTEISAADKAEEFRRQQADFVDLSFPTISSTGPNGAIIHYAPVPETNRTLSLDEVYLIDSGAQYKDGTTDVTRTMHFGTPTAYEKECFTYVLKGHIAVSAAVFPTGTKGHLLDSFARSALWDSGLDYLHGTGHGVGSFLNVHEGPCGISYKTFSDEPLEAGMIVTDEPGYYEDGAFGIRIENVVLVVPVKTKYNFNNRGSLTFEPLTLVPIQTKMIDVDSLTDKECDWLNNYHLTCRDVIGKELQKQGRQEALEWLIRETQPISKQH
Kd: 15.3 µM
